The subject of data set [1] is T1, CpCR-L-GDH.
T1 construct: fusion: CpCR N-terminal, (GGGGS)2 linker, GDH C-terminal; about 69 kDa; pETDuet-1, E. coli BL21(DE3); with Glucose 1-dehydrogenase
Description: NADPH depletion at […] nm. It counts as biochemical. The settings on record: 100 mM phosphate pH 7.0, NADPH co-substrate, fused GDH; substrate of Km not given, OPBE by the assay.

In data set [2] the test system is T2, GDH-L-CpCR.
T2 construct: fusion: GDH N-terminal, (GGGGS)2 linker, CpCR C-terminal; pETDuet-1, E. coli BL21(DE3); with Glucose 1-dehydrogenase
Description: NADPH depletion at […] nm. The settings on record: 100 mM phosphate pH 7.0, NADPH co-substrate, fused GDH; substrate of Km not given, OPBE by the assay. It counts as biochemical.

Substrate in data set [3]: CCOC(=O)C(=O)CCc1ccccc1
Description: purified protein. It counts as biochemical, Lodderomyces parapsilosis. The settings on record: 100 mM phosphate pH 7.0, NADPH co-substrate, enzyme from pETDuet-1 strain, substrate of Km not given, OPBE by the assay.

The values below come from article PMC11473482, “Highly efficient synthesis of the chiral ACE inhibitor intermediate (R)-2-hydroxy-4-phenylbutyrate ethyl ester via engineered bi-enzyme coupled systems” (Bioresources and Bioprocessing, 2024).

Turning to `CCOC(=O)C(=O)CCc1ccccc1` [OPBE], the Km amounted to 18.9 mM in data set [1] and 16.5 mM in data set [2].

B1: CpCR (Lodderomyces parapsilosis) (protein)
chain: MTKAVPDKFQGFAVSDPKNWNRPKLASYERKQINPHDVVLKNEVCGLCYSDIHTLSAGWQPLQRDNLVVGHEIIGEVIAVGDEVTEFKVGDRVGIGAASSSCRSCQRCDSDNEQYCKQGAATYNSKDVRSNNYVTQGGYSSHSIADEKFVFAIPEDLPSSYGAPLMCAGITVFSPLIRNLGLDARGKNVGIIGIGGLGHLALQFANAMGANVTAFSRSSSKKEQAMKLGAHDFVATGEDKTWYKNYDDHFDFILNCASGIDGLNLSEYLSTLKVDKKFVSVGLPPSEDKFEVSPFTFLQQGASFGSSLLGSKTEVKEMLNLAAKHNVRPMIEEVPISEENCAKALDRCHAGDVRYRFVFTDFDKAFKA
notes: full-length ORF, 368 residues, about 41 kDa; His-tagged, expressed from pETDuet-1 in E. coli BL21(DE3), Ni-NTA purified
As for B1, in data set [3], the Km was found to be 19.32 mM, the kcat stood at 1.77 s⁻¹ and the specificity constant (kcat/Km) came to 91 M⁻¹ s⁻¹.

The Km is the substrate concentration at which the rate is half of its maximum. For orientation: kcat means the number of substrate molecules converted per active site and unit of time at saturation. One may read the kcat/Km as the second-order rate constant that governs catalysis at low substrate concentration.
